The text below walks through data of IntAct's records for PubMed 10545448.

B1: Meiosis-inducing protein 1 (Saccharomyces cerevisiae), P21190 (parent)
chain: MQADMHGKLHAALEDGFFLFPFEQQQQPNIYYDTTTDQEDRPCFSFGSTISPRSWHFEKSDKIASSQLQNLVHTQPIHLINPQILFNEEFLNLENIDSQPISKETKTTKDCTMATGPERGKKSSESTRSSSLSSLFSNDESASTFHSSFNNHDNFQKSNRNGDDIDISDTIKYETNTNAQKDIKIFQENFEFNEFPYTQDFYPYTTNYTYSKPTNIHESINSKNTDSYSQYQDQFPPHTDNIHSFNNRHYSNHKSTNCNYYNNTSNNNNASDNVYEADPFIDEPQVPSYYYPLEIAFDVEKSPPPSLQKLNSKELEFLKKLNSKLSRYAAAYSFSSSNDQDYYDKVRFQEISYKFSKTYS
partner: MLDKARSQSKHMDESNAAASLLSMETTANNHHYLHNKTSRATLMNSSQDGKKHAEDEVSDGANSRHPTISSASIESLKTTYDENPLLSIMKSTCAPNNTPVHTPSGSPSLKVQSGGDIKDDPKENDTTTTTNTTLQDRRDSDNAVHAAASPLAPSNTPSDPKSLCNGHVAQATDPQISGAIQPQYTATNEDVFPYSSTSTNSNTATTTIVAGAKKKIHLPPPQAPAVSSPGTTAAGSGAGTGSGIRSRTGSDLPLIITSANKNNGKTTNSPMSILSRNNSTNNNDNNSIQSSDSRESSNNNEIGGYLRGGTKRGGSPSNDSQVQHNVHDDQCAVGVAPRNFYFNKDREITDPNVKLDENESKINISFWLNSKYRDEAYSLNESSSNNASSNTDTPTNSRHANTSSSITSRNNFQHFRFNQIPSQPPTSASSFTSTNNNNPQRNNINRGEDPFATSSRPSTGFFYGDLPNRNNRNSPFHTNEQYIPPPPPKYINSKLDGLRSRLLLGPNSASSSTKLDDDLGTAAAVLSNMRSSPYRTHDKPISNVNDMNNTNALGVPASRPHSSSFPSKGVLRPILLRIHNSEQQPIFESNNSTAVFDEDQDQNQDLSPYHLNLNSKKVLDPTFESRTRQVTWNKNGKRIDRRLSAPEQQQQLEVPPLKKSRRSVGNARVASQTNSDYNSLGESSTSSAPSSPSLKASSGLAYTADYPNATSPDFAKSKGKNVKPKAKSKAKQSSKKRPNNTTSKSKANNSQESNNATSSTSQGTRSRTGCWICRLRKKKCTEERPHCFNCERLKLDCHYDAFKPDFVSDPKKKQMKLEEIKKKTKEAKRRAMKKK
B2: Meiosis-inducing protein 1 (Saccharomyces cerevisiae), P21190 (parent)
chain: B1 chain
partner: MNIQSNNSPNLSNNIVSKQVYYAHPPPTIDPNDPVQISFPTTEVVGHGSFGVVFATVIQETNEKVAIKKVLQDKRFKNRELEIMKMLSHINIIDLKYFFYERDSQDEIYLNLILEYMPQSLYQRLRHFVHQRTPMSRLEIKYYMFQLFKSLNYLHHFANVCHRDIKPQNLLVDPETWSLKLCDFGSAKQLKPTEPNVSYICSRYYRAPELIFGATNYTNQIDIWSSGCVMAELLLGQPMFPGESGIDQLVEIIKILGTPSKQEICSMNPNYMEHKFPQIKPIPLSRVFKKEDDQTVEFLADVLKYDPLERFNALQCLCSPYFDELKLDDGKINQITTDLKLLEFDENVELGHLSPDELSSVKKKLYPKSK

In the first experiment the parent is B1. The conditions noted are these: with ume6_yeast UME6, P39001.
Turning to Y342A;Y343A;S352A;Y353A;S356A;T358A;Y359A;S360A, the “effect of a mutation on the interaction” value is “disrupting interaction strength”.

For S352A;S356A;S360A, the “effect of a mutation on the interaction” value is reported as “decreasing interaction strength”.

For L321F;S360F, the “effect of a mutation on the interaction” value was “decreasing interaction strength”.

For the variant R347K;S360F, the “effect of a mutation on the interaction” value is recorded as “disrupting interaction strength”.

For the variant L321F, the “effect of a mutation on the interaction” value was “disrupting interaction strength”.

Consider R347K, for which the “effect of a mutation on the interaction” value is recorded as “disrupting interaction strength”.

Variants of B2 are the subject of a further experiment. The settings on record: with rim11_yeast RIM11, P38615.
R347K: the “effect of a mutation on the interaction” value is reported as “disrupting interaction strength”.

As to L321F, the “effect of a mutation on the interaction” value is “disrupting interaction strength”.

L321F;S360F: the “effect of a mutation on the interaction” value is reported as “decreasing interaction strength”.

Turning to R347K;S360F, the “effect of a mutation on the interaction” value is listed as “decreasing interaction strength”.

The next experiment covers variants of B2. The conditions noted are these: with rim11_yeast RIM11, P38615. The source holds these as a separate data set.
Turning to L321F;S360F, the “effect of a mutation on the interaction” value is given as “with no effect”.

Consider R347K;S360F, for which the “effect of a mutation on the interaction” value is given as “with no effect”.

Turning to Y342A;Y343A;S352A;Y353A;S356A;T358A;Y359A;S360A, the “effect of a mutation on the interaction” value is listed as “with no effect”.
